Results reported in doi:10.1101/858225, “FANCD2-FANCI is a clamp stabilized on DNA by monoubiquitination during DNA repair” (bioRxiv, 2019).

B1: His-tagged Gallus gallus FANCI (expressed alone) (natural protein, UniProt B0I564 1-1338, looked up)
chain: MAQRILQLAAEGSPERLQEALQGLTEGELGDMVTRQALRGRETAALLKGIFKGSPCSQQSGVLRRLQVYKHCVSLVESGDLHVGKVSEIIGLLMLEARQLPGHALAELATLFVEVIKRGSLSNGKSLELFSTVLTALSNSKESLAYGKGELNGEEFKKQLINTLCSSKWDPQCVIHLANMFRDIPLSGEELQFVVEKVLRMFSKLDLQEIPPLVYQLLLLSAKGSKKTVLEGIISFFNQLDKRQKEEQRVPQSADLEVATVPLDQLRHVEGTVILHIVSAINLDQDIGEELIKHLKTEQQKDPGKALCPFSVSLLLSTAVKHRLQEQIFDFLKTSITRSCKDLQILQASKFLQDLCPQQYDVTAVILEVVKNSAFGWDHVTQGLVDLGFSLMESYEPKKSFGGKAAETNLGLSKMPAQQACKLGASILLETFKVHEPIRSDILEQVLNRVLTKAASPVSHFIDLLSNIVVSAPLVLQNSSSRVTETFDNLSFLPIDTVQGLLRAVQPLLKVSMSVRDSLILVLQKAIFSRQLDARKAAVAGFLLLLRNFKILGSLTSSQCSQAIGATQVQADVHACYNSAANEAFCLEILGSLRRCLSQQADVRLMLYEGFYDVLRRNSQLASSIMETLLSQIKQYYLPQQDLLPPLKLEGCIMAQGDQIFLQEPLAHLLCCIQHCLAWYKSTVHLCKGAEDEEEEEDVGFEQNFEEMLESVTRRMIKSELEDFELDKSADFSPSSGVGVKNNIYAIQVMGICEVLIEYNFKIGNFSKNKFEDVLGLFTCYNKLSEILKEKAGKNKSTLGNRIARSFLSMGFVSTLLTALFRDNAQSHEESLAVLRSSTEFMRYAVSVALQKVQQLEEMGQTDGPDGQNPEKMFQNLCKITRVLLWRYTSIPTAVEESGKKKGKSISLLCLEGLLRIFNTMQQLYAARIPQFLQALDITDGDAEEADINVTEKAAFQIRQFQRSLVNQLSSAEDDFNSKETQLLITILSTLSKLLDPGSQQFLQFLTWTVKICKENALEDLSCCKGLLTLLFSLHVLYKSPVSLLRELAQDIHACLGDIDQDVEIESRSHFAIVNVKTAAPTVCLLVLGQADKVLEEVDWLIKRLTILGSDTSEDSTQASNQTQALEKGVILQLGTLLTVFHELVQTALPAGSCVDSLLRSLSKTYAILTSLIKHYIQACRSTSNTVPGRLEKLVKLSGSHLTPQCYSFITYVQNIHSESLSFAEEKKKKKKEDETAVVSTVMAKVLRDTKPIPNLIFAIEQYEKFLIHLSKKSKVNLMQYMKLSTSRDFRINASMLDSVLQEQNTEDAENEPDNNQSGTAEQPDENQEPQKKRRRKK
notes: FANCI, Gallus gallus, full length cDNA synthesized (GeneArt); C-terminal extension with a 3C protease site before the 6x His tag; no cleavage is described; The results call the FANCI of the pull-down 'untagged', the methods 'His-tagged'; also called free FANCI; monomeric FANCI; source: Sf9, purified (HisTrap, heparin, Superdex 200); not shown: 6x His, C-terminal, kept
B2: StrepII-tagged Gallus gallus FANCD2 (expressed alone) (natural protein, UniProt Q68Y81 1-1439, looked up)
chain: MVSKRKLSKIDAAEESSKTDLQSRCPETKRSRISDKRAPSQGGLENEGVFEELLRTSGIILKVGEGQNEIAVDQTAFQKKLRVALEKHPSYPGVVNEFISGLESHIKDRSQFKNCLLPCTPARTEGSRTLVHSYCESLIKLLLGIKILQPAVVTLLLEKIPEFFFDVVGTFGTNFPRLIVNQFKWLDGLLDSQDLVKKLMQMLSVSPVPIQHDIITSLPEILEDSQQNEVARELSCLLKQGRRLTVPILDALSRLDLDAELLAEVRQSAMTIVPSVKLEDLPVVIKFILHNVKAADAVEVISDLRKSLDLSSCVLPLQLLGSQRKLKSQAQASSSMSQVTTSQNCVKLLFDVIKQAVRFQKDVSEAWIKAIENSTSVSDHKVLDLIVLLLIHSTNSKNRKQTEKVLRSKIRLGCMPEQLMQNAFQNHSMVIKDFFPSILSLAQTFLHSAHPAVVSFGSCMYKQAFAVFDSYCQQEVVCALVTHVCSGNETELDISLDVLTDLVILHPSLLLRYATFVKTILDSMQKLNPCQIRKLFYILSTLAFSQRQEGSYIQDDMHMVIRKWLSSSVPNHKQMGIIGAVTMMGSVALKRNEADGGLLERPELSIECDGQLSTLLDLVGFCCEQTPEVLALYYDELANLIEKQKGNLDLQLLDKFGKSLVEDFPNDFVVDLSPTVDGSFLFPVKSLYNLDEDETQGAIAINLLPLVSQSEPGRVADEMSNSRKRVVSPICLSPCFRLLRLYTGEQNNGSLEEIDALLGCPLYLTDLEVEGKLDSLSKQEREFLCSLLFYALNWFREVVNAFCQQQDAEMKGKVLTRLQNITELQNVLGKCLAATPGYVPPPATFDSEAPEGVPSINAGGPVRKKNGKKRKSDSSKACSAERTQADESSDGNQPDTELSELEKSATEKETGNPLAQLQSYRPYFRELDLEVFSVLHCGLLTKSILDTEMHTEASEVVQLGPAELCFLLDDMCWKLEHVLTPGSTRRVPFLKERGNKDVGFSHLCQRSPKEVAVCVVKLLKPLCNHMENMHNYFQTVIPNQGVVDESGLNIQEYQLMSSCYHQLLLAFRLLFAWSGFSQHENSNLLRSALQVLADRLKPGETEFLPLEELISESFQYLLNFQASIPSFQCAFILTQVLMAISEKPMTGWKREKMASLAKQFLCQSWMKPGGDREKGSHFNSALHTLLCVYLEHTDNILKAIEEISSVGVPELINSAKDGCSSTYPTLSRQTFPVFFRVMMAQLESSVKSIPAGKPSDSGEVQLEKLLKWNIAVRNFHILINLVKVFDSRPVLSICLKYGRLFVEAFLKLAMPLLDHSFKKHRDDVQSLLKTLQLSTRQLHHMCGHSKIHQDLGLTNHVPLLKKSLEQFVYRVKAMLAFNHCQEAFWVGVLKNRDLQGEEILSQASAAPEEDSAEGSEEDTADSAAEEPDGTDSDSGGAGR
notes: FANCD2, Gallus gallus, full length cDNA synthesized (GeneArt); C-terminal extension with a 3C protease site before the double StrepII tag; no cleavage is described; also called FANCD2 homodimer; D2-D2; source: Sf9, purified (Strep-Tactin, heparin, Superdex 200); not shown: double StrepII, C-terminal, kept

Columns and labels:
[1] = target: B2; assay: pull-down; StrepII-tagged FANCD2 held on StrepTactin Sepharose, FANCI added at FANCD2:FANCI molar ratios 1:0 to 1:5 and 0:5; 50 mM HEPES pH 7.5, 150 mM NaCl, 1 mM TCEP; 15 min room temperature, 30 min 4 °C on resin, two washes; bound fraction by SDS-PAGE; conditions: both partners purified
[2] = target: the molecule itself; assay: SEC; Superdex 200 10/300, 50 mM HEPES pH 7.5, 150 mM NaCl, 1 mM TCEP; 300 µl of each protein at 1 µM; mix of 0.5 µM FANCD2 with 1 µM FANCI incubated 30 min at room temperature; fractions by SDS-PAGE

| stoichiometry N [1] | Binder | stoichiometry N [2] |
| --- | --- | --- |
| ~1 | B1 | – |
| – | B2 | 2 |
